# Values of other authors in US20190298804A1, “ACTIVATION OF THE ENDOGENOUS ILEAL BRAKE HORMONE PATHWAY FOR ORGAN REGENERATION AND RELATED COMPOSITIONS, METHODS OF TREATMENT, DIAGNOSTICS, AND REGULATORY SYSTEMS” (VOLANT HOLDINGS GMBH, priority 2013, published 2019).
# B1: BTC: member of the epidermal growth factor family (protein, UniProt P35070 32-111, looked up)
# Betacellulin: DGNSTRSPETNGLLCGDPEENCAATTTQSKRKGHFSRCPKQYKHYCIKGRCRFVVAEQTPSCVCDEGYIGARCERVDLFY
# modifications: Betacellulin
# notes: member of the epidermal growth factor family
# System: MIN-6 cells
# Details: immunoprecipitation and western blotting
molecule,measurement,value
B1,phosphorylation of EGF receptors,induced phosphorylation of only ErbB-1 and ErbB-2
